Laboratory results taken from patent US20120225065A1 (published 2012).

Target: Recombinant human IL-21 (human, UniProt Q9HBE4 25-162)
Assay: cell-based or functional assay

Recombinant human IL-21, sequence (Q9HBE4 25-162 limits assumed): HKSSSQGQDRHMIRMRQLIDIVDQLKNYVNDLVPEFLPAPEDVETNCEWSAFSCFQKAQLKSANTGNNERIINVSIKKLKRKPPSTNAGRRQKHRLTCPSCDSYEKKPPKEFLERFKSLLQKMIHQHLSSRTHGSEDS

% IgD-low, CD138+ Plasma Cells at antagonist:ligand ratio 0.16:1 (actual 0.22:1) | % IgD-low, CD138+ Plasma Cells at antagonist:ligand ratio 0.6:1 (actual 0.9:1) | % IgD-low, CD138+ Plasma Cells at antagonist:ligand ratio 2.5:1 (actual 3.6:1) | % IgD-low, CD138+ Plasma Cells at antagonist:ligand ratio 10:1 (actual 14.4:1) | % IgD-low, CD138+ Plasma Cells at antagonist:ligand ratio 0.16:1 | % IgD-low, CD138+ Plasma Cells at antagonist:ligand ratio 0.6:1 | % IgD-low, CD138+ Plasma Cells at antagonist:ligand ratio 2.5:1 | % IgD-low, CD138+ Plasma Cells at antagonist:ligand ratio 10:1 | Binder
50.3% | 44.8% | 26.4% | 15.4% | – | – | – | – | Human anti-human IL-21 monoclonal antibody clone 366.552.11 (antibody, V domains shown) VH: QVQLQESGPGLVKPSETLSLTCTVSGGSISSDFWGWIRQPPGKGLEWIGYISSRGSTNYNPSLKRRVTISVDTSRNQFSLKLSSVTAADTAVYYCARSAGVTDFDFWGQGTLVTVSS VL: DIQMTQSPSSVSASVGDRVTITCRASQGISSWLAWYQHKPGKAPKLLIYVASSLQSGVPSRFSGSGSGTDFTLTISSLQPEDFATYYCQQANSFPLTFGGGTKVEIK
– | – | – | – | 52.1% | 41.4% | 20.2% | 15.4% | Human anti-human IL-21 monoclonal antibody clone 366.328.10 (antibody, V domains shown) VH: EVQLVESGGGLVKPGGSLRLSCAASGFIFSSYSMNWVRQAPGKGLEWVSSITSGSYYIHYADSVKGRFTISRDNAKNSLYLQMNSLRAEDTAVYYCVRERGWGYYGMDVWGQGTTVTVSS VL: AIQLTQSPSSLSASVGDRVTITCRASQDIDSALAWYQQKPGKAPKILIHDASSLESGVPSRFSGSGSGTDFTLTISSLQPEDFATYYCQQFNSYPYTFGQGTKLEIK
– | – | – | – | 66.7% | 54.2% | 41.7% | 23.4% | Heterodimeric IL-21 soluble receptor IL-21R/γc-Fc (Fc fusion, not shown: a dimerising Fc or GST) chain 1: not shown chain 2: LNTTILTPNGNEDTTADFFLTTMPTDSLSVSTLPLPEVQCFVFNVEYMNCTWNSSSEPQPTNLTLHYWYKNSDNDKVQKCSHYLFSEEITSGCQLQKKEIHLYQTFVVQLQDPREPRRQATQMLKLQNLVIPWAPENLTLHKLSESQLELNWNNRFLNHCLEHLVQYRTDWDHSWTEQSVDYRHKFSLPSVDGQKRYTFRVRSRFNPLCGSAQHWSEWSHPIHWGSNTSKENPFLFALEA
